Legend:
Experiment in all cases: killing
[1] = molecular target: T1, MAGE-B2 peptide, G1E peptide on HLA-A*02:01 (human)
T1 peptide: EVYDGEEHSV

[2] = molecular target: T2, MAGE-B2 peptide, V10M peptide on HLA-A*02:01 (human)
T2 peptide: GVYDGEEHSM

[3] = molecular target: T3, MAGE-B2 peptide, G1D peptide on HLA-A*02:01 (human)
T3 peptide: DVYDGEEHSV

[4] = molecular target: T4, MAGE-B2 peptide, V10C peptide on HLA-A*02:01 (human)
T4 peptide: GVYDGEEHSC

[5] = molecular target: T5, MAGE-B2 peptide, V10F peptide on HLA-A*02:01 (human)
T5 peptide: GVYDGEEHSF

[6] = molecular target: T6, MAGE-B2 peptide, V2G peptide on HLA-A*02:01 (human)
T6 peptide: GGYDGEEHSV

[7] = molecular target: T7, MAGE-B2 peptide, G1L peptide on HLA-A*02:01 (human)
T7 peptide: LVYDGEEHSV

[8] = molecular target: T8, MAGE-B2 peptide, G1W peptide on HLA-A*02:01 (human)
T8 peptide: WVYDGEEHSV

[9] = molecular target: T9, MAGE-B2 peptide, G1N peptide on HLA-A*02:01 (human)
T9 peptide: NVYDGEEHSV

[10] = molecular target: T10, MAGE-B2 peptide, G5M peptide on HLA-A*02:01 (human)
T10 peptide: GVYDMEEHSV

[11] = molecular target: T11, MAGE-B2 peptide, G1M peptide on HLA-A*02:01 (human)
T11 peptide: MVYDGEEHSV

[12] = molecular target: T12, MAGE-B2 peptide, G5R peptide on HLA-A*02:01 (human)
T12 peptide: GVYDREEHSV

[13] = molecular target: T13, MAGE-B2 peptide, D4E peptide on HLA-A*02:01 (human)
T13 peptide: GVYEGEEHSV

[14] = molecular target: T14, MAGE-B2 peptide, G1V peptide on HLA-A*02:01 (human)
T14 peptide: VVYDGEEHSV

[15] = molecular target: T15, MAGE-B2 peptide, G5C peptide on HLA-A*02:01 (human)
T15 peptide: GVYDCEEHSV

[16] = molecular target: T16, MAGE-B2 peptide, G1C peptide on HLA-A*02:01 (human)
T16 peptide: CVYDGEEHSV

[17] = molecular target: T17, MAGE-B2 peptide, V2S peptide on HLA-A*02:01 (human)
T17 peptide: GSYDGEEHSV

[18] = molecular target: T18, MAGE-B2 peptide, G1Q peptide on HLA-A*02:01 (human)
T18 peptide: QVYDGEEHSV

[19] = molecular target: T19, MAGE-B2 peptide, V2C peptide on HLA-A*02:01 (human)
T19 peptide: GCYDGEEHSV

[20] = molecular target: T20, MAGE-B2 peptide, G1H peptide on HLA-A*02:01 (human)
T20 peptide: HVYDGEEHSV

[21] = molecular target: T21, MAGE-B2 peptide, V2A peptide on HLA-A*02:01 (human)
T21 peptide: GAYDGEEHSV

[22] = molecular target: T22, MAGE-B2 peptide, G5L peptide on HLA-A*02:01 (human)
T22 peptide: GVYDLEEHSV

[23] = molecular target: T23, MAGE-B2 peptide, G1I peptide on HLA-A*02:01 (human)
T23 peptide: IVYDGEEHSV

[24] = molecular target: T24, MAGE-B2 peptide, V10T peptide on HLA-A*02:01 (human)
T24 peptide: GVYDGEEHST

[25] = molecular target: T25, MAGE-B2 peptide, G1T peptide on HLA-A*02:01 (human)
T25 peptide: TVYDGEEHSV

[26] = molecular target: T26, MAGE-B2 peptide, D4W peptide on HLA-A*02:01 (human)
T26 peptide: GVYWGEEHSV

[27] = molecular target: T27, MAGE-B2 peptide, E6L peptide on HLA-A*02:01 (human)
T27 peptide: GVYDGLEHSV

[28] = molecular target: T28, MAGE-B2 peptide, V10Y peptide on HLA-A*02:01 (human)
T28 peptide: GVYDGEEHSY

[29] = molecular target: T29, MAGE-B2 peptide, E6K peptide on HLA-A*02:01 (human)
T29 peptide: GVYDGKEHSV

[30] = molecular target: T30, MAGE-B2 peptide, E6I peptide on HLA-A*02:01 (human)
T30 peptide: GVYDGIEHSV

[31] = molecular target: T31, MAGE-B2 peptide, E6F peptide on HLA-A*02:01 (human)
T31 peptide: GVYDGFEHSV

[32] = molecular target: T32, MAGE-B2 peptide, E6R peptide on HLA-A*02:01 (human)
T32 peptide: GVYDGREHSV

[33] = molecular target: T33, MAGE-B2 peptide, E6P peptide on HLA-A*02:01 (human)
T33 peptide: GVYDGPEHSV

[34] = molecular target: T34, MAGE-B2 peptide, G5A peptide on HLA-A*02:01 (human)
T34 peptide: GVYDAEEHSV

[35] = molecular target: T35, MAGE-B2 peptide, E7G peptide on HLA-A*02:01 (human)
T35 peptide: GVYDGEGHSV

[36] = molecular target: T36, MAGE-B2 peptide, E6Y peptide on HLA-A*02:01 (human)
T36 peptide: GVYDGYEHSV

[37] = molecular target: T37, MAGE-B2 peptide, E6N peptide on HLA-A*02:01 (human)
T37 peptide: GVYDGNEHSV

[38] = molecular target: T38, MAGE-B2 peptide, G5P peptide on HLA-A*02:01 (human)
T38 peptide: GVYDPEEHSV

[39] = molecular target: T39, MAGE-B2 peptide, E6D peptide on HLA-A*02:01 (human)
T39 peptide: GVYDGDEHSV

Measured: binding result

B1: TCR1 (TCR, V domains shown)
Valpha: KQEVTQIPAALSVPEGENLVLNCSFTDSAIYNLQWFRQDPGKGLTSLLLIQSSQREQTSGRLNASLDKSSGRSTLYIAASQPGDSATYLCAAMKTSYDKVIFGPGTSLSVIP
Vbeta: GEEVAQTPKHLVRGEGQKAKLYCAPIKGHSYVFWYQQVLKNEFKFLISFQNENVFDETGMPKERFSAKCLPNSPCSLEIQATKLEDSAVYFCASSQGQGGYGYTFGSGTRLTVV
recognises: [1] | [2] | [3] | [4] | [5] | [6] | [7] | [8] | [9] | [10] | [11] | [12] | [13] | [14] | [15] | [16] | [17] | [18] | [19] | [20] | [21] | [22] | [23] | [24] | [25] | [26]

B2: TCR3 (TCR, V domains shown)
Valpha: AQKVTQAQTEISVVEKEDVTLDCVYETRDTTYYLFWYKQPPSGELVFLIRRNSFDEQNEISGRYSWNFQKSTSSFNFTITASQVVDSAVYFCALSVLRMDSSYKLIFGSGTRLLVRP
Vbeta: NAGVTQTPKFRVLKTGQSMTLLCAQDMNHEYMYWYRQDPGMGLRLIHYSVGEGTTAKGEVPDGYNVSRLKKQNFLLGLESAAPSQTSVYFCASSLQGAGQPQHFGDGTRLSIL
recognises: [27] | [28] | [29] | [30] | [31] | [32] | [33] | [34] | [35] | [36]

B3: TCR2 (TCR, V domains shown)
Valpha: QKEVEQNSGPLSVPEGAIASLNCTYSDRGSQSFFWYRQYSGKSPELIMSIYSNGDKEDGRFTAQLNKASQYVSLLIRDSQPSDSATYLCAVNIPFSNSGGYQKVTFGTGTKLQVIP
Vbeta: NAGVTQTPKFRVLKTGQSMTLLCAQDMNHEYMYWYRQDPGMGLRLIHYSVGEGTTAKGEVPDGYNVSRLKKQNFLLGLESAAPSQTSVYFCASRHPGQYNQPQHFGDGTRLSIL
recognises: [37] | [38] | [39]

From patent US20240100162A1 (published 2024)
